The values that follow come from US20200199241A1 (Chugai, published 2020).

B1: IL6R-PD079/IL6R-L (antibody, human IgG1)
heavy: QVQLQESGPGLVKPSETLSLTCAVSGHSISHDHAWSWVRQPPGEGLEWIGFISYSGITNYNPSLQGRVTISRDNSKNTLYLQMNSLRAEDTAVYYCARSLARTTAMDYWGEGTLVTVSSASTKGPSVFPLAPSSKSTSGGTAALGCLVKDYFPEPVTVSWNSGALTSGVHTFPAVLQSSGLYSLSSVVTVPSSSLGTQTYICNVNHKPSNTKVDKKVEPKSCDKTHTCPPCPAPELLGADSVFLFPPKPKDTLYISRTPEVTCVVVDVSHEDPEVKFNWYVDGVEVHNAKTKPREEQYNSTYRVVSVLTVLHQDWLNGKEYKCKVSNKALPAPIEKTISKAKGQPREPQVYTLPPSRDELTKNQVSLTCLVKGFYPSDIAVEWESNGQPENNYKTTPPVLDSDGSFFLYSKLTVDKSRWQQGNVFSCSVMHEALHYHYTQKSLSLSP
light: DIQMTQSPSSLSASVGDRVTITCRASQDISSYLNWYQQKPGKAPKLLIYYTSRLHSGVPSRFSGSGSGTDFTFTISSLQPEDIATYYCQQGNTLPYTFGQGTKVEIK
notes: Alteration introduced into IL6R-F11; also called P238D/G237A; G237A/P238D
B2: IL6R-PD087/IL6R-L (antibody, human IgG1)
heavy: B1 heavy with A239M
light: B1 light
notes: Alteration introduced into IL6R-F11; also called P238D/G237M; G237M/P238D
B3: IL6R-PD086/IL6R-L (antibody, human IgG1)
heavy: B1 heavy with A239L
light: B1 light
notes: Alteration introduced into IL6R-F11; also called P238D/G237L; G237L/P238D
B4: IL6R-PD095/IL6R-L (antibody, human IgG1)
heavy: B1 heavy with A239Y
light: B1 light
notes: Alteration introduced into IL6R-F11; also called P238D/G237Y; G237Y/P238D
B5: IL6R-PD097/IL6R-L (antibody, human IgG1)
heavy: B1 heavy with A239G, S241D
light: B1 light
notes: Alteration introduced into IL6R-F11; also called P238D/S239D
B6: IL6R-PD094/IL6R-L (antibody, human IgG1)
heavy: B1 heavy with A239W
light: B1 light
notes: Alteration introduced into IL6R-F11; also called P238D/G237W; G237W/P238D
B7: IL6R-PD042/IL6R-L (antibody, human IgG1)
heavy: B1 heavy with L236W, A239G
light: B1 light
notes: Alteration introduced into IL6R-F11; also called P238D/L234W; L234W/P238D
B8: IL6R-PD082/IL6R-L (antibody, human IgG1)
heavy: B1 heavy with A239F
light: B1 light
notes: Alteration introduced into IL6R-F11; also called P238D/G237F; G237F/P238D
B9: IL6R-PD043/IL6R-L (antibody, human IgG1)
heavy: B1 heavy with L236Y, A239G
light: B1 light
notes: Alteration introduced into IL6R-F11; also called P238D/L234Y; L234Y/P238D
B10: IL6R-PD081/IL6R-L (antibody, human IgG1)
heavy: B1 heavy with A239E
light: B1 light
notes: Alteration introduced into IL6R-F11; also called P238D/G237E; G237E/P238D
B11: antibody with VH3-IgG1-F1333 heavy chain and L(WT)-CK light chain (antibody)
heavy: B1 heavy with L237R, G238R, A239G, D240P, S241K, Y438V
light: not shown
notes: L235R/G236R/S239K on VH3-IgG1-F890; copies: 2 + 2
B12: antibody with VH3-IgG1-F1356 heavy chain and L(WT)-CK light chain (antibody)
heavy: B1 heavy with G238R, A239G, D240P, L330R, Y438V
light: not shown
notes: G236R/L328R on VH3-IgG1-F890; copies: 2 + 2
B13: IL6R-PD080/IL6R-L (antibody)
chain 1: B1 heavy with A239D
chain 2: not shown
B14: IL6R-F652/IL6R-L (antibody, human IgG1)
heavy: B1 heavy with A239G
light: B1 light
notes: IL6R-F11 with P238D (EU numbering)

Numbering of substitutions follows the chain as printed. Numbers in names are those of the source.

T4 sequence (P08637 other isoform, or with tags, fused parts or gaps limits assumed): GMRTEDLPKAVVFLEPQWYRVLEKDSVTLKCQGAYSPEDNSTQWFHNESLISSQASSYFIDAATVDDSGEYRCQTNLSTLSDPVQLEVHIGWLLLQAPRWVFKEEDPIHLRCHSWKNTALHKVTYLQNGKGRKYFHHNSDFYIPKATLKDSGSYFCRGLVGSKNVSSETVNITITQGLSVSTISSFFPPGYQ

For one test, the target named is T1, human FcγRIIb (human, UniProt P31994 43-217, limits assumed).
T1 construct: also called FcγIIB
T1 sequence: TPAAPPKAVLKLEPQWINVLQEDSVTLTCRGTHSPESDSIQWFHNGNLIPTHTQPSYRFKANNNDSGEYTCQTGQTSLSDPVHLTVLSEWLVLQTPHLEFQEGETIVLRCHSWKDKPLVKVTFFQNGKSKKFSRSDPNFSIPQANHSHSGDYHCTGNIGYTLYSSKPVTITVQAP
Nature of the test: SPR (Biacore); KD for FcγRIIaH divided by KD for FcγRIIb of the same antibody.
For the molecule B1, the “KD(IIaH)/KD(IIb)” value was 7.

For B2, the “KD(IIaH)/KD(IIb)” value came out at 7.

B3: the “KD(IIaH)/KD(IIb)” value amounted to 7.1.

Turning to B4, the “KD(IIaH)/KD(IIb)” value is 6.4.

For B5, the “KD(IIaH)/KD(IIb)” value stood at 14.

Take B6: the “KD(IIaH)/KD(IIb)” value came out at 5.2.

For the molecule B7, the “KD(IIaH)/KD(IIb)” value is 9.5.

In the case of B8, the “KD(IIaH)/KD(IIb)” value came out at 4.7.

Take B9: the “KD(IIaH)/KD(IIb)” value was determined as 14.4.

In the case of B10, the “KD(IIaH)/KD(IIb)” value came out at 7.

The target of the next test is T1, human FcγRIIb. Nature of the test: SPR (Biacore); ratio against parent IL6R-F11/IL6R-L. (In general: In SPR one partner is held on a chip, and binding of the other changes the refractive index at the surface.)
As to B1, the “KD(IIb) of parent polypeptide/KD(IIb) of altered polypeptide” value (shortened to “KD(IIb) … of altered polypeptide”) stood at 2.3.

B2: the “KD(IIb) … of altered polypeptide” value was found to be 2.4.

As for B3, the “KD(IIb) … of altered polypeptide” value turned out to be 2.7.

B4: the “KD(IIb) … of altered polypeptide” value is 2.9.

Consider B5, for which the “KD(IIb) … of altered polypeptide” value amounted to 5.

In the case of B6, the “KD(IIb) … of altered polypeptide” value amounted to 2.9.

Consider B7, for which the “KD(IIb) … of altered polypeptide” value stood at 3.4.

Consider B8, for which the “KD(IIb) … of altered polypeptide” value was determined as 2.

With B9, the “KD(IIb) … of altered polypeptide” value was found to be 4.2.

Regarding B10, the “KD(IIb) … of altered polypeptide” value stood at 1.9.

In a further test the target is T1, human FcγRIIb. Nature of the test: SPR (Biacore); KD for FcγRIIaR divided by KD for FcγRIIb of the same antibody.
B1: the “KD(IIaR)/KD(IIb)” value is 10.5.

As for B2, the “KD(IIaR)/KD(IIb)” value is 7.7.

With B3, the “KD(IIaR)/KD(IIb)” value was found to be 6.9.

On to B4, for which the “KD(IIaR)/KD(IIb)” value worked out at 3.4.

Consider B5, for which the “KD(IIaR)/KD(IIb)” value worked out at 2.6.

For B6, the “KD(IIaR)/KD(IIb)” value was 3.1.

For B7, the “KD(IIaR)/KD(IIb)” value was determined as 8.1.

As to B8, the “KD(IIaR)/KD(IIb)” value stood at 4.1.

For the molecule B9, the “KD(IIaR)/KD(IIb)” value stood at 15.9.

Consider B10, for which the “KD(IIaR)/KD(IIb)” value is 10.6.

The next test has as its target T2, human FcγRIIb (human, UniProt P31994 43-217, limits assumed).
T2 construct: also called hFcgRIIb; FcγIIB
T2 sequence: T1 sequence
The experiment in a line: SPR, antibody captured by Protein L, human FcγR as analyte, pH 7.4, 25 C.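 Note: biacore T100 or T200 with Protein L amine-coupled on a CM4 chip, FcγRs diluted in ACES saline with polysorbate 20, buffer-only injection as blank.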
As to B11, the “BINDING AMOUNT (RU)” value was -0.2 RU.

Take B12: the “BINDING AMOUNT (RU)” value stood at 0.63 RU.

In another test the target is T3, human FcγRIIa(R) (human, UniProt P12318 36-217).
T3 construct: also called hFcgRIIa(R); FcγRIIa type R
T3 chain: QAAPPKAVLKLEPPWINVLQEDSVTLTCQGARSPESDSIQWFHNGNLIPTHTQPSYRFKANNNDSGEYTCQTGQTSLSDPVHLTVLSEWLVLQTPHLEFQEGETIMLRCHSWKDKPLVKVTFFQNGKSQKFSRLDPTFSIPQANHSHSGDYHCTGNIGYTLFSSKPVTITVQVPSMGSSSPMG
The description is as above.
In the case of B11, the “BINDING AMOUNT (RU)” value was -0.15 RU.

Turning to B12, the “BINDING AMOUNT (RU)” value is -0.23 RU.

The next test addresses T4, human FcγRIIIa(V) (human, UniProt P08637 17-208, limits assumed).
T4 construct: also called hFcgRIIIa(V); allotype V158
The description is as above.
Consider B11, for which the “BINDING AMOUNT (RU)” value was -1.42 RU.

Take B12: the “BINDING AMOUNT (RU)” value was found to be 0.09 RU.

The next test addresses T5, human FcγRIa (human, UniProt P12314 16-292, limits assumed).
T5 construct: also called hFcgRIa; hFcgRI
Described as above.
T5 sequence (P12314 16-292 limits assumed): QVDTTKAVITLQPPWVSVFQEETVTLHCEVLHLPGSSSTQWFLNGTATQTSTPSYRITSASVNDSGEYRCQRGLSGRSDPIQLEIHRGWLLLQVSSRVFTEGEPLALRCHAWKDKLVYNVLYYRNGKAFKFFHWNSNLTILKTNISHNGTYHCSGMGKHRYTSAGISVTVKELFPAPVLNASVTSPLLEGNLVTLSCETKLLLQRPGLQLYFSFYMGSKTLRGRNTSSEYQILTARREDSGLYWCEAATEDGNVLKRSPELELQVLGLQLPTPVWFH
For B11, the “BINDING AMOUNT (RU)” value is -0.35 RU.

With B12, the “BINDING AMOUNT (RU)” value was -0.9 RU.

Another test deals with T6, human FcγRIIa(H) (human, UniProt P12318 36-217).
T6 construct: also called hFcgRIIa(H); FcγRIIa type H
T6 sequence: T3 chain with R133H
The test is described as above.
Regarding B11, the “BINDING AMOUNT (RU)” value was -0.56 RU.

As for B12, the “BINDING AMOUNT (RU)” value was -0.22 RU.

In a further test the target is T1, human FcγRIIb. The experiment in a line: SPR (Biacore), antibody captured, FcγR as analyte.
As usually defined, the Kd is a measure of binding affinity in units of concentration. The low end stands for a tighter complex, the high end for a looser complex. In turn, B1 showed a Kd of 3000 nM.

B2 had a Kd of 2900 nM.

With B3, binding was put at a Kd of 2600 nM.

For the molecule B4, binding was characterised by a dissociation constant (Kd) of 2300 nM.

With B5, the affinity, expressed as Kd, was 1400 nM. Compared with the last molecule, the Kd is about 1.6-fold lower.

With B6, the Kd was determined as 2300 nM.

Molecule B7 registered a Kd of 2000 nM. This Kd and that of the molecule before are within 1.5-fold of each other.

As to B8, the affinity, expressed as Kd, was 3400 nM.

In turn, B9 yielded a Kd of 1600 nM.

B10 came in with a Kd of 3600 nM.

In another test the target is T7, human FcγRIIa type R (human, UniProt P12318 36-217).
T7 construct: also called FcγRIIaR; FcγRIIa(R)
T7 chain: T3 chain
The experiment in a line: SPR (Biacore), antibody captured, FcγR as analyte.
Regarding B13, the Kd is 21000 nM. In other words, the double-digit micromolar range.

B1 gave a Kd of 32000 nM.

For B2, the Kd turned out to be 22000 nM.

Turning to B3, the affinity, expressed as Kd, was 18000 nM. The Kd values of the last two molecules are within 1.5-fold of each other.

B4 registered a Kd of 7900 nM.

As to B5, the Kd was 3500 nM.

B6 yielded a Kd of 7200 nM.

As to B7, the Kd was 16000 nM.

Molecule B8 showed a Kd of 14000 nM.

The molecule B9 gave a Kd of 26000 nM.

On to B10, for which the dissociation constant Kd was determined as 38000 nM.

The target of a further test is T8, human FcγRIa (human, UniProt P12314 16-292, limits assumed).
T8 construct: also called CD64
Nature of the test: SPR (Biacore), antibody captured, FcγR as analyte.
T8 sequence (P12314 16-292 limits assumed): as above
In turn, B1 yielded a Kd of 140 nM. This lies in the sub-micromolar range.

Regarding B2, binding was characterised by a dissociation constant (Kd) of 52 nM.

As to B3, the Kd is 120 nM.

B4 returned a Kd of 93 nM.

Molecule B5 gave a Kd of 4.9 nM.

For B6, binding was put at a Kd of 36 nM.

B7 yielded a Kd of 63 nM. This Kd is about 1.8-fold higher than that of the molecule before.

B8 displayed a Kd of 52 nM. The Kd values of the last two molecules are within 1.5-fold of each other.

As to B9, the Kd is 75 nM.

As to B10, the Kd was found to be 340 nM.

The next test has as its target T1, human FcγRIIb. Nature of the test: SPR (Biacore), binding amount relative to IL6R-F652/IL6R-L = 100.
The molecule B1 displayed a relative binding activity of 101.

For the molecule B2, the relative binding activity worked out at 109.

As to B3, the relative binding activity amounted to 112.

In turn, B4 had a relative binding activity of 124.

Turning to B5, the relative binding activity turned out to be 139.

B14 yielded a relative binding activity of 100.

Molecule B6 showed a relative binding activity of 122.

Take B7: the relative binding activity came out at 106.

In turn, B8 registered a relative binding activity of 108.

With B9, the relative binding activity came to 112.

Consider B10, for which the relative binding activity turned out to be 101.

For a further test, the target named is T7, human FcγRIIa type R. The test is described as above.
Consider B1, for which the relative binding activity stood at 138.

The molecule B2 returned a relative binding activity of 196.

With B3, the relative binding activity is 268.

On to B4, for which the relative binding activity was found to be 543.

Molecule B5 showed a relative binding activity of 844.

The molecule B14 had a relative binding activity of 100.

B6 displayed a relative binding activity of 593.

Molecule B7 registered a relative binding activity of 240.

For the molecule B8, the relative binding activity is 380.

B9: the relative binding activity is 175.

B10 gave a relative binding activity of 117.
